According to publication PMC10980799, “The transcription of the main gene associated with Treacher–Collins syndrome (TCOF1) is regulated by G-quadruplexes and cellular nucleic acid binding protein (CNBP)”:

Legend:
[1] = biological target: T1, CNBP (Homo sapiens, UniProt P62633 1-177); assay: EMSA; 100 mM Li+; apparent Kd, SEM, n=3; EMSA: 20 mM HEPES pH 8.0, 10 mM MgCl2, 1 mM EDTA, 0.5 ug/ul heparin, 1 mM DTT, 1 ug/ul BSA, 10% glycerol, 100 mM KCl or LiCl, probe 0.75 uM, 30 min at 37 C; CNBP diluted in 50 mM Tris-HCl pH 7.5, 300 mM NaCl, 1 mM DTT, 5 mM imidazole, 0.1 mM ZnCl2; details: protein: recombinant; tags: tag-free (from pET-32a-TEV-CNBP, tag removed); label: none (SYBR Gold stain); single strand, unfolded
T1 sequence (P62633 whole entry): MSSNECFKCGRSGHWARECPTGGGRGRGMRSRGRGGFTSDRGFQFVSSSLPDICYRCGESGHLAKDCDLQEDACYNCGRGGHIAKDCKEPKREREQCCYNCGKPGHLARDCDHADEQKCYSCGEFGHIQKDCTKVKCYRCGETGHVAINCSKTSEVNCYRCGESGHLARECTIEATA

[2] = biological target: T1, CNBP; assay: EMSA; 100 mM K+; apparent Kd, SEM, n=3; EMSA: 20 mM HEPES pH 8.0, 10 mM MgCl2, 1 mM EDTA, 0.5 ug/ul heparin, 1 mM DTT, 1 ug/ul BSA, 10% glycerol, 100 mM KCl or LiCl, probe 0.75 uM, 30 min at 37 C; CNBP diluted in 50 mM Tris-HCl pH 7.5, 300 mM NaCl, 1 mM DTT, 5 mM imidazole, 0.1 mM ZnCl2; details: protein: recombinant, tags: tag-free (from pET-32a-TEV-CNBP, tag removed), label: none (SYBR Gold stain)

B1: Hs2160 unfolded (Li+) (ssDNA)
DNA: GTGTATGTGGGGGGGGGGGGCGGGTGGTAG
- Kd [1]: 287 ± 100 nM

B2: Dr2393 unfolded (Li+) (ssDNA)
DNA: TGCTGGTGGTCATGGGGGAGTGGAGAGCAT
- Kd [1]: 257 ± 70 nM

B3: Dr2393 folded as G4 (K+) (structured_DNA)
DNA: TGCTGGTGGTCATGGGGGAGTGGAGAGCAT
- Kd ([2]; G4): 331 ± 80 nM

B4: Hs2160 folded as G4 (K+) (structured_DNA)
DNA: GTGTATGTGGGGGGGGGGGGCGGGTGGTAG
- Kd ([2]; parallel G4): 431 ± 120 nM

B5: Hs791 unfolded (Li+) (ssDNA)
DNA: TGGGGTGGGGTGAGGTGGGGAAGAGGGAAC
- Kd [1]: 199 ± 55 nM

B6: Hs791 folded as G4 (K+) (structured_DNA)
DNA: TGGGGTGGGGTGAGGTGGGGAAGAGGGAAC
- Kd ([2]; parallel G4): 271 ± 70 nM
